Results as given in US20260109758A1 (BIOSION, published 2026).

What was measured:
[1] = target: T1, recombinant human IL4Rα-his (human, UniProt P24394 26-231, limits assumed, biotin-labeled in the capture ELISA); assay: SPR Biacore T200; antibody captured on anti-human IgG CM5 chip, IL4Rα-his as analyte; 1:1 Langmuir fit
T1 construct: In-house made; not shown: His tag at the C-terminus
Method: The goat anti-human IgG (GE healthcare, Cat #BR100839, Human Antibody Capture Kit) was covalently linked to a CM5 chip (carboxy methyl dextran coated chip) via primary amines, using a standard amine coupling kit provided by Biacore (GE healthcare, Pittsburgh, PA, USA). Un-reacted moieties on the biosensor surface were blocked with ethanolamine. Then, purified bispecific antibodies of the disclosure at the concentration of 66.67 nM and the controls at 10 μg/mL, were flowed onto the chip at a flow rate of 10 μL/min. Then, serially diluted recombinant human IL4Rα-his (in house made, IL4Rα of SEQ ID NO: 33 with His tag at C-terminus) in HBS EP buffer (provided by Biacore) was flowed onto the chip at a flow rate of 30 μL/min. The association and dissociation curves were fit to a 1:1 Langmuir binding model using BIAcore evaluation software.

[2] = target: T2, recombinant human TSLP-his (human, UniProt Q969D9 29-159, biotin-labeled in the ELISAs); assay: SPR Biacore; TSLP-his amine-coupled to CM5 chip, antibody as analyte; 1:1 Langmuir fit
T2 construct: In-house made; not shown: His tag at the C-terminus
Method: Un-reacted moieties on the biosensor surface were blocked with ethanolamine. Then, serially diluted purified bispecific antibodies and the controls (2-fold serial dilution in HBS-EP⁺ buffer starting at 100 nM) were respectively flowed onto the chip at a flow rate of 30 μL/min. The antigen-antibody association kinetics was followed for 4 minutes and the dissociation kinetics was followed for 13 minutes.

[3] = target: T1, recombinant human IL4Rα-his; assay: capture ELISA: antibody captured on anti-human IgG Fc F(ab')2, biotin human IL4Rα-his, SA-HRP
Method: Briefly, 96-well plates were coated with 2 μg/mL AffiniPure F(ab′)₂ Fragment Goat Anti-Human IgG, Fey fragment specific (Jackson Immuno Research, Cat #109-006-008) in PBS, 100 μL/well, overnight at 4° C. Plates were washed once with wash buffer (PBS+0.05% w/v Tween-20, PBST) and then blocked with 200 μL/well blocking buffer (5% w/v non-fatty milk in PBST) for 2 hours at 37° C. […] After a final wash, plates were incubated with 100 μL/well ELISA substrate TMB (Innoreagents, Cat #TMB-S-002). The reaction was stopped in 10 minutes at 25° C. with 50 μL/well 1M H₂SO₄, and the absorbance was read on a microplate reader using dual wavelength mode with 450 nm for TMB and 630 nm as the reference wavelength. Data was analyzed using Graphpad Prism and EC₅₀ values were reported.

[4] = target: T1, recombinant human IL4Rα-his; assay: dual-binding ELISA: coated human IL4Rα-his, antibody titrated, detection with biotin human TSLP-his and SA-HRP; signal needs both antigens bound
Method: For the dual-binding ELISA, 96-well ELISA plates were firstly coated with 100 μL 1 μg/mL human IL4Rα-his protein (IL4Rα of SEQ ID NO: 33 with His tag at C terminus, prepared in-house) in PBS overnight at 4° C. ELISA plates were washed 4 times with wash buffer (PBS+0.05% Tween-20, PBST) and then blocked with 200 μL/well blocking buffer (5% w/v non-fatty milk in PBST) for 2 hours at 37° C. […] ELISA plates were washed again and incubated with SA-HRP (100 μl/well) for 40 minutes at 37° C. After the final wash, 100 μL/well TMB (Innoreagents) was added. The reaction was stopped 15 minutes later at room temperature with 50 μL/well 1M H₂SO₄, and the absorbance was read on a microplate reader using dual wavelength mode with 450 nm for TMB and 630 nm as the reference wavelength. The OD (450-630) values were plotted against antibody concentration. Data was analyzed using Graphpad Prism and EC₅₀ values were reported.

[5] = target: T3, human IL4Rα expressed on 293F-IL4Rα cell surface (human, UniProt P24394 26-825); assay: flow cytometry on 293F-IL4Rα cells, PE anti-human IgG Fc
T3 construct: whole, on cells; also called human IL4Rα-expressing cells; cell surface IL4R
Method: Cells were washed twice with FACS buffer, and added with 100 μL/well R-Phycoerythrin AffiniPure Goat Anti-Human IgG, Fey fragment specific (1:1000 dilution in FACS buffer, Jackson Immunoresearch, Cat #109-115-098). Following an incubation of 40 minutes at 4° C. in dark, cells were washed three times and resuspended in FACS buffer. Fluorescence was measured using a Becton Dickinson FACS Canto II-HTS equipment. Data was analyzed using Graphpad Prism and EC₅₀ values were reported.

| Binder | Kd [1] | koff [1] | kon [1] | Kd [2] | koff [2] | kon [2] | EC50 [3] | EC50 [4] | EC50 [5] |
| --- | --- | --- | --- | --- | --- | --- | --- | --- | --- |
| BSI-502-007 (bispecific antibody, human IgG1, kappa, huC2C1A1A1-V15 IgG with an anti-TSLP scFv (VH-VL) at the N-terminus of the heavy chain; AQQ and YTE already stand in the entry) heavy: QVQLVQSGAEVKKPGASVKVSCKASGYTFTTYWMHWVRQAPGQGLEWMGVIDPSDSDTTYNQKFKGRVTMTRDTSTSTVYMELSSLRSEDTAVYYCTRSLDGYYDYWGQGTLVTVSSGGGGSGGGGSGGGGSGGGGSDIQMTQSPSSLSASVGDRVTITCRPTENIYSYLAWYQQKPGKAPKLLIYFARTLAEGVPSRFSGSGSGTDFTLTISSLQPEDFATYYCQHHYGTPWTFGGGTKVEIKGGGGSGGGGSEVQLVESGGGLVQPGGSLRLSCAASGFTFSTYGMSWVRQAPGKGLVWVATINSNGGSTSYPDSVKGRFTISRDNAKNTLYLQMNSLRAEDTAVYYCARFFRFRNAMDYWGQGTLVTVSSASTKGPSVFPLAPSSKSTSGGTAALGCLVKDYFPEPVTVSWNSGALTSGVHTFPAVLQSSGLYSLSSVVTVPSSSLGTQTYICNVNHKPSNTKVDKKVEPKSCDKTHTCPPCPAPEAQGGPSVFLFPPKPKDTLYITREPEVTCVVVDVSHEDPEVKFNWYVDGVEVHNAKTKPREEQYNSTYRVVSVLTVLHQDWLNGKEYKCQVSNKALPAPIEKTISKAKGQPREPQVYTLPPSRDELTKNQVSLTCLVKGFYPSDIAVEWESNGQPENNYKTTPPVLDSDGSFFLYSKLTVDKSRWQQGNVFSCSVMHEALHNHYTQKSLSLSPG light: DIQMTQSPSSLSASVGDRVTITCRTSENIYSYLAWYQQKPGKAPKFLVYNAKTLAEGVPSRFSGSGSGTDFTLTISSLQPEDFATYYCQHYYGPPTWTFGQGTKVEIKRTVAAPSVFIFPPSDEQLKSGTASVVCLLNNFYPREAKVQWKVDNALQSGNSQESVTEQDSKDSTYSLSSTLTLSKADYEKHKVYACEVTHQGLSSPVTKSFNRGEC | 2.22 nM | 0.000399 s⁻¹ | 180000 M⁻¹ s⁻¹ | 0.0084 nM | 3.87e-06 s⁻¹ | 460000 M⁻¹ s⁻¹ | 0.0272 nM | 0.0944 nM | 0.188 nM |
| BSI-502-008 (bispecific antibody, human IgG1, kappa, huC2C1A1A1-V15 IgG with an anti-TSLP scFv (VL-VH) at the N-terminus of the heavy chain; AQQ and YTE already stand in the entry) heavy: DIQMTQSPSSLSASVGDRVTITCRPTENIYSYLAWYQQKPGKAPKLLIYFARTLAEGVPSRFSGSGSGTDFTLTISSLQPEDFATYYCQHHYGTPWTFGGGTKVEIKGGGGSGGGGSGGGGSGGGGSQVQLVQSGAEVKKPGASVKVSCKASGYTFTTYWMHWVRQAPGQGLEWMGVIDPSDSDTTYNQKFKGRVTMTRDTSTSTVYMELSSLRSEDTAVYYCTRSLDGYYDYWGQGTLVTVSSGGGGSGGGGSEVQLVESGGGLVQPGGSLRLSCAASGFTFSTYGMSWVRQAPGKGLVWVATINSNGGSTSYPDSVKGRFTISRDNAKNTLYLQMNSLRAEDTAVYYCARFFRFRNAMDYWGQGTLVTVSSASTKGPSVFPLAPSSKSTSGGTAALGCLVKDYFPEPVTVSWNSGALTSGVHTFPAVLQSSGLYSLSSVVTVPSSSLGTQTYICNVNHKPSNTKVDKKVEPKSCDKTHTCPPCPAPEAQGGPSVFLFPPKPKDTLYITREPEVTCVVVDVSHEDPEVKFNWYVDGVEVHNAKTKPREEQYNSTYRVVSVLTVLHQDWLNGKEYKCQVSNKALPAPIEKTISKAKGQPREPQVYTLPPSRDELTKNQVSLTCLVKGFYPSDIAVEWESNGQPENNYKTTPPVLDSDGSFFLYSKLTVDKSRWQQGNVFSCSVMHEALHNHYTQKSLSLSPG light: DIQMTQSPSSLSASVGDRVTITCRTSENIYSYLAWYQQKPGKAPKFLVYNAKTLAEGVPSRFSGSGSGTDFTLTISSLQPEDFATYYCQHYYGPPTWTFGQGTKVEIKRTVAAPSVFIFPPSDEQLKSGTASVVCLLNNFYPREAKVQWKVDNALQSGNSQESVTEQDSKDSTYSLSSTLTLSKADYEKHKVYACEVTHQGLSSPVTKSFNRGEC | 3.15 nM | 0.000436 s⁻¹ | 138000 M⁻¹ s⁻¹ | 0.00758 nM | 4.43e-06 s⁻¹ | 585000 M⁻¹ s⁻¹ | 0.0323 nM | 0.107 nM | 0.176 nM |
| BSI-502-003 (bispecific antibody, human IgG1, kappa, hu1C5F12E9-V8 IgG with an anti-IL4R scFv (huC2C1A1A1-V15, VH-VL) at the N-terminus of the heavy chain; AQQ and YTE already stand in the entry) heavy: EVQLVESGGGLVQPGGSLRLSCAASGFTFSTYGMSWVRQAPGKGLVWVATINSNGGSTSYPDSVKGRFTISRDNAKNTLYLQMNSLRAEDTAVYYCARFFRFRNAMDYWGQGTLVTVSSGGGGSGGGGSGGGGSGGGGSDIQMTQSPSSLSASVGDRVTITCRTSENIYSYLAWYQQKPGKAPKFLVYNAKTLAEGVPSRFSGSGSGTDFTLTISSLQPEDFATYYCQHYYGPPTWTFGQGTKVEIKGGGGSGGGGSQVQLVQSGAEVKKPGASVKVSCKASGYTFTTYWMHWVRQAPGQGLEWMGVIDPSDSDTTYNQKFKGRVTMTRDTSTSTVYMELSSLRSEDTAVYYCTRSLDGYYDYWGQGTLVTVSSASTKGPSVFPLAPSSKSTSGGTAALGCLVKDYFPEPVTVSWNSGALTSGVHTFPAVLQSSGLYSLSSVVTVPSSSLGTQTYICNVNHKPSNTKVDKKVEPKSCDKTHTCPPCPAPEAQGGPSVFLFPPKPKDTLYITREPEVTCVVVDVSHEDPEVKFNWYVDGVEVHNAKTKPREEQYNSTYRVVSVLTVLHQDWLNGKEYKCQVSNKALPAPIEKTISKAKGQPREPQVYTLPPSRDELTKNQVSLTCLVKGFYPSDIAVEWESNGQPENNYKTTPPVLDSDGSFFLYSKLTVDKSRWQQGNVFSCSVMHEALHNHYTQKSLSLSPG light: DIQMTQSPSSLSASVGDRVTITCRPTENIYSYLAWYQQKPGKAPKLLIYFARTLAEGVPSRFSGSGSGTDFTLTISSLQPEDFATYYCQHHYGTPWTFGGGTKVEIKRTVAAPSVFIFPPSDEQLKSGTASVVCLLNNFYPREAKVQWKVDNALQSGNSQESVTEQDSKDSTYSLSSTLTLSKADYEKHKVYACEVTHQGLSSPVTKSFNRGEC | 2.43 nM | 0.000534 s⁻¹ | 220000 M⁻¹ s⁻¹ | 0.000317 nM | 1.82e-07 s⁻¹ | 574000 M⁻¹ s⁻¹ | – | 0.0491 nM | – |
| BSI-502-005 (bispecific antibody, human IgG1, kappa, hu1C5F12E9-V8 IgG with an anti-IL4R scFv (VH-VL) at the C-terminus of the heavy chain; AQQ and YTE already stand in the entry) heavy: QVQLVQSGAEVKKPGASVKVSCKASGYTFTTYWMHWVRQAPGQGLEWMGVIDPSDSDTTYNQKFKGRVTMTRDTSTSTVYMELSSLRSEDTAVYYCTRSLDGYYDYWGQGTLVTVSSASTKGPSVFPLAPSSKSTSGGTAALGCLVKDYFPEPVTVSWNSGALTSGVHTFPAVLQSSGLYSLSSVVTVPSSSLGTQTYICNVNHKPSNTKVDKKVEPKSCDKTHTCPPCPAPEAQGGPSVFLFPPKPKDTLYITREPEVTCVVVDVSHEDPEVKFNWYVDGVEVHNAKTKPREEQYNSTYRVVSVLTVLHQDWLNGKEYKCQVSNKALPAPIEKTISKAKGQPREPQVYTLPPSRDELTKNQVSLTCLVKGFYPSDIAVEWESNGQPENNYKTTPPVLDSDGSFFLYSKLTVDKSRWQQGNVFSCSVMHEALHNHYTQKSLSLSPGKGGGGSGGGGSEVQLVESGGGLVQPGGSLRLSCAASGFTFSTYGMSWVRQAPGKGLVWVATINSNGGSTSYPDSVKGRFTISRDNAKNTLYLQMNSLRAEDTAVYYCARFFRFRNAMDYWGQGTLVTVSSGGGGSGGGGSGGGGSGGGGSDIQMTQSPSSLSASVGDRVTITCRTSENIYSYLAWYQQKPGKAPKFLVYNAKTLAEGVPSRFSGSGSGTDFTLTISSLQPEDFATYYCQHYYGPPTWTFGQGTKVEIK light: DIQMTQSPSSLSASVGDRVTITCRPTENIYSYLAWYQQKPGKAPKLLIYFARTLAEGVPSRFSGSGSGTDFTLTISSLQPEDFATYYCQHHYGTPWTFGGGTKVEIKRTVAAPSVFIFPPSDEQLKSGTASVVCLLNNFYPREAKVQWKVDNALQSGNSQESVTEQDSKDSTYSLSSTLTLSKADYEKHKVYACEVTHQGLSSPVTKSFNRGEC | 2.93 nM | 0.000161 s⁻¹ | 54900 M⁻¹ s⁻¹ | < 0.0145 nM | < 1e-05 s⁻¹ | 692000 M⁻¹ s⁻¹ | 0.119 nM | 0.0779 nM | 0.417 nM |
